Results published in the supplement of paper PMC10567573.

B1: TRIM43 (parent)
chain: NNSWIRKNSTMVNSEDIFLLLCLK
B2: SMOC2 (parent)
chain: DCAGSPQKPLCASDGRTFLSRCEF

Variants of: B1
Experiment: protein stability index of a GFP-peptide fusion (GPS, HEK-293T) (PSI 1-6); higher = more stable
Conditions: c terminus: a fixed tail appended
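Also: lentivirally expressed fusions sorted by FACS into six bins by GFP to DsRed ratio, PSI derived from sequencing read proportions per bin multiplied by bin number.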

Protein stability index: each site, then its substitutions
K24: I 2.33; W 2.28; D 3.92; V 2.38; R 3.57; P 3.69; E 4.39; G 3.84; H 2.87; T 2.05; A 3.16; Y 3.18; M 3.1; N 2.86; L 2.72; C 2.79; Q 3.08; S 3.16
L23: R 1.55; T 2.42; W 3.66; S 2.42; Y 2.25

Variants of: B2
Experiment: as above
Conditions: c terminus: a fixed tail appended

Protein stability index of substitutions, site by site:
R21: W 1.76; F 2.02; T 1.9; M 1.68; D 4.14; A 2.71; Y 2.27; N 3.78; H 3.26; P 3.91; C 2.44; Q 3.1
R16: M 2.88; Y 2.33; Q 3.19; H 3.97; K 3.29; N 3.61; T 3.39; P 3.43; E 4.14; W 1.72; D 4.12; F 1.35; G 3.4; V 2.77; S 3.08; C 2.33
F24: K 2.97; T 2.61; W 2.02; S 3.46; D 4.38; L 3.44; V 3.32; M 2.72; A 3.45; N 3.93; P 2.43; R 2.57; Y 2.67
E23: D 3.65; V 1.73; Y 1.84; R 2.43; A 2.59; P 2.95; N 3.31; L 4.25; K 3.63; T 2.19; I 1.52; C 2.53; W 1.82; S 2.74
C11: I 2.56; Q 2.82; A 2.7; Y 2.58; M 3.23; W 2.41; H 2.73; T 2.48; L 3.3; N 2.67; D 3.79
L10: M 2.56; T 2.65; I 2.63; Q 4.04; E 3.84; C 2.85; R 2.48; G 3.23; H 3.54; Y 2.47; F 1.82; S 2.97; P 2.93; V 2.28
D1: R 1.55; S 1.93; H 2.02; F 1.5; Y 1.72; V 2.35; A 1.89; P 2.66; M 1.7; I 2.92; G 2.38; T 2.59
C22: W 2.93; P 3.95; V 2.63; L 2.5; E 4.38; F 2.5; Y 3.67; D 4.81; A 3.86; S 3.49; T 3.29; M 2.31; G 3.96
C2: R 3.19; D 3.44; Y 2.63; E 3.84; N 2.81; T 3.5; F 3.25; W 2.23; A 2.79; Q 3.12; H 3.36; P 3.4; G 3.66; I 2.25
K8: G 2.94; Y 1.9; D 3.33; F 3.62; S 2.34; V 2.13; Q 2.77; I 2.68; L 2.41; M 2.23; T 2.69
F18: I 3.4; E 4.54; A 3.52; R 3.84; T 4; N 4.26; C 3.73; P 4; D 4.51; G 4.82; K 4.09; V 2.84
P9: Y 2.47; I 2.04
